Measured values: the supplement of paper PMC10567573

B1: PLK2 (parent)
chain: MELLRTITYQPAASTKMCEQALGK
B2: DLC1 (parent)
chain: KRSWEEHVTHWMGQPFNSDDRNTA

Variants of: B1
Assay: protein stability index of a GFP-peptide fusion (GPS, HEK-293T) (PSI 1-6); higher = more stable
Settings: c terminus: a fixed tail appended
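Also: lentivirally expressed fusions sorted by FACS into six bins by GFP to DsRed ratio, PSI derived from sequencing read proportions per bin multiplied by bin number.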

| Variant | protein stability index |
| --- | --- |
| MELLRTITYQPAASTKMCEQALGT [K24T] | 2.21 |
| MELLRTITYQPAASTKMCEQALGW [K24W] | 3.92 |
| MELLRTITYQPAASTKMCEQALGR [K24R] | 1.98 |
| MELLRTITYQPAASTKMCEQALGP [K24P] | 2.65 |
| MELLRTITYQPAASTKMCEQALGV [K24V] | 2.86 |
| MELLRTITYQPAASTKMCEQALGM [K24M] | 3.29 |
| MELLRTITYQPAASTKMCEQALGL [K24L] | 3.19 |
| MELLRTITYQPAASTKMCEQALGY [K24Y] | 3.96 |
| MELLRTITYQPAASTKMCEQALGQ [K24Q] | 1.89 |
| MELLRTITYQPAASTKMCEQALGN [K24N] | 2.59 |
| MELLRTITYQPAASTKMCEQALGS [K24S] | 2.47 |

Variants of: B2
Assay: as above
Settings: c terminus: a fixed tail appended

| Variant | protein stability index |
| --- | --- |
| KVSWEEHVTHWMGQPFNSDDRNTA [R2V] | 3.26 |
| KGSWEEHVTHWMGQPFNSDDRNTA [R2G] | 3.61 |
| KLSWEEHVTHWMGQPFNSDDRNTA [R2L] | 3.28 |
| KNSWEEHVTHWMGQPFNSDDRNTA [R2N] | 3.67 |
| KCSWEEHVTHWMGQPFNSDDRNTA [R2C] | 2.52 |
| KDSWEEHVTHWMGQPFNSDDRNTA [R2D] | 4.37 |
| KHSWEEHVTHWMGQPFNSDDRNTA [R2H] | 3.08 |
| KWSWEEHVTHWMGQPFNSDDRNTA [R2W] | 2.98 |
| KMSWEEHVTHWMGQPFNSDDRNTA [R2M] | 2.79 |
| KYSWEEHVTHWMGQPFNSDDRNTA [R2Y] | 3.25 |
| KKSWEEHVTHWMGQPFNSDDRNTA [R2K] | 2.6 |
| KASWEEHVTHWMGQPFNSDDRNTA [R2A] | 3.11 |
| KESWEEHVTHWMGQPFNSDDRNTA [R2E] | 3.61 |
| KQSWEEHVTHWMGQPFNSDDRNTA [R2Q] | 3.11 |
| KSSWEEHVTHWMGQPFNSDDRNTA [R2S] | 3.79 |
| KTSWEEHVTHWMGQPFNSDDRNTA [R2T] | 3.7 |
| KFSWEEHVTHWMGQPFNSDDRNTA [R2F] | 3.62 |
| KPSWEEHVTHWMGQPFNSDDRNTA [R2P] | 3.37 |
| KISWEEHVTHWMGQPFNSDDRNTA [R2I] | 2.71 |
| KRSPEEHVTHWMGQPFNSDDRNTA [W4P] | 4.45 |
| KRSLEEHVTHWMGQPFNSDDRNTA [W4L] | 3.45 |

| Variant | protein stability index |
| --- | --- |
| KRSVEEHVTHWMGQPFNSDDRNTA [W4V] | 4.36 |
| KRSGEEHVTHWMGQPFNSDDRNTA [W4G] | 4.38 |
| KRSSEEHVTHWMGQPFNSDDRNTA [W4S] | 4.32 |
| KRSFEEHVTHWMGQPFNSDDRNTA [W4F] | 4.09 |
| KRSQEEHVTHWMGQPFNSDDRNTA [W4Q] | 4.71 |
| KRSTEEHVTHWMGQPFNSDDRNTA [W4T] | 4.76 |
| KRSYEEHVTHWMGQPFNSDDRNTA [W4Y] | 4.08 |
| KRSKEEHVTHWMGQPFNSDDRNTA [W4K] | 4.48 |
| KRSAEEHVTHWMGQPFNSDDRNTA [W4A] | 4.41 |
| KRSMEEHVTHWMGQPFNSDDRNTA [W4M] | 3.95 |
| KRSCEEHVTHWMGQPFNSDDRNTA [W4C] | 4.2 |
| KRSDEEHVTHWMGQPFNSDDRNTA [W4D] | 5.21 |
| KRSHEEHVTHWMGQPFNSDDRNTA [W4H] | 4.44 |
| KRSNEEHVTHWMGQPFNSDDRNTA [W4N] | 4.95 |
| KRSREEHVTHWMGQPFNSDDRNTA [W4R] | 4.62 |
| KRSEEEHVTHWMGQPFNSDDRNTA [W4E] | 5.05 |
| KRSIEEHVTHWMGQPFNSDDRNTA [W4I] | 4.41 |
| KRSWIEHVTHWMGQPFNSDDRNTA [E5I] | 1.92 |
| KRSWFEHVTHWMGQPFNSDDRNTA [E5F] | 3.16 |
| KRSWCEHVTHWMGQPFNSDDRNTA [E5C] | 2.17 |
| KRSWDEHVTHWMGQPFNSDDRNTA [E5D] | 3.94 |

| Variant | protein stability index |
| --- | --- |
| KRSWAEHVTHWMGQPFNSDDRNTA [E5A] | 2.55 |
| KRSWHEHVTHWMGQPFNSDDRNTA [E5H] | 3.56 |
| KRSWGEHVTHWMGQPFNSDDRNTA [E5G] | 3.07 |
| KRNWEEHVTHWMGQPFNSDDRNTA [S3N] | 3.81 |
| KRIWEEHVTHWMGQPFNSDDRNTA [S3I] | 3.78 |
| KRHWEEHVTHWMGQPFNSDDRNTA [S3H] | 3.72 |
| KRMWEEHVTHWMGQPFNSDDRNTA [S3M] | 3.35 |
| KRFWEEHVTHWMGQPFNSDDRNTA [S3F] | 3.18 |
| KRVWEEHVTHWMGQPFNSDDRNTA [S3V] | 3.94 |
| KRLWEEHVTHWMGQPFNSDDRNTA [S3L] | 3.37 |
| KRDWEEHVTHWMGQPFNSDDRNTA [S3D] | 4.33 |
| KRQWEEHVTHWMGQPFNSDDRNTA [S3Q] | 3.54 |
| KRWWEEHVTHWMGQPFNSDDRNTA [S3W] | 3 |
| KREWEEHVTHWMGQPFNSDDRNTA [S3E] | 4.41 |
| KRYWEEHVTHWMGQPFNSDDRNTA [S3Y] | 3.01 |
| KRRWEEHVTHWMGQPFNSDDRNTA [S3R] | 3.34 |
| KRAWEEHVTHWMGQPFNSDDRNTA [S3A] | 3.44 |
| KRCWEEHVTHWMGQPFNSDDRNTA [S3C] | 2.24 |
| KRPWEEHVTHWMGQPFNSDDRNTA [S3P] | 3.6 |
| KRKWEEHVTHWMGQPFNSDDRNTA [S3K] | 3.47 |
| KRTWEEHVTHWMGQPFNSDDRNTA [S3T] | 2.13 |

| Variant | protein stability index |
| --- | --- |
| KRGWEEHVTHWMGQPFNSDDRNTA [S3G] | 3.44 |
| RRSWEEHVTHWMGQPFNSDDRNTA [K1R] | 2.99 |
| ERSWEEHVTHWMGQPFNSDDRNTA [K1E] | 4.15 |
| IRSWEEHVTHWMGQPFNSDDRNTA [K1I] | 2.54 |
| YRSWEEHVTHWMGQPFNSDDRNTA [K1Y] | 2.81 |
| DRSWEEHVTHWMGQPFNSDDRNTA [K1D] | 4.26 |
| PRSWEEHVTHWMGQPFNSDDRNTA [K1P] | 3.6 |
| FRSWEEHVTHWMGQPFNSDDRNTA [K1F] | 3.16 |
| ARSWEEHVTHWMGQPFNSDDRNTA [K1A] | 3.57 |
| LRSWEEHVTHWMGQPFNSDDRNTA [K1L] | 3.03 |
| HRSWEEHVTHWMGQPFNSDDRNTA [K1H] | 2.69 |
| QRSWEEHVTHWMGQPFNSDDRNTA [K1Q] | 3.76 |
| NRSWEEHVTHWMGQPFNSDDRNTA [K1N] | 3.63 |
| GRSWEEHVTHWMGQPFNSDDRNTA [K1G] | 3.21 |
| WRSWEEHVTHWMGQPFNSDDRNTA [K1W] | 2.49 |
| VRSWEEHVTHWMGQPFNSDDRNTA [K1V] | 2.95 |
| CRSWEEHVTHWMGQPFNSDDRNTA [K1C] | 2.54 |
| SRSWEEHVTHWMGQPFNSDDRNTA [K1S] | 3.46 |
| TRSWEEHVTHWMGQPFNSDDRNTA [K1T] | 3.35 |
| MRSWEEHVTHWMGQPFNSDDRNTA [K1M] | 2.73 |
